Data on one molecule can be found in patent publication US20170095512A1, “METHODS OF INDUCING MYELINATION AND MATURATION OF OLIGODENDROCYTES” (KADIMASTEM LTD., priority 2014, published 2017).

Assay [1] has as its system glial progenitor cells derived from human ES cells (Olig2 positive cells). In words: hOPC differentiation assay, Olig2 positive cells (immunostaining, high content screening). Type of assay: cell-based. To be noted: days 21, 28, 35, 42; noggin 100 ng/ml; LDN-193189 62.5 nM and 125 nM. Here is the method:
In order to initiate differentiation 20,000 GPCs were seeded in each well of Matrigel coated plates of 96 wells, or on PolyD-Lysine/laminin (PDL/lam)-coated 96 well plates. Cells were grown in GM media for two to three days. Then GM was replaced by differentiation medium without growth factors, (DMEM/F12, 1% B27, 0.5% N2, Vitamin C (Sigma, 50 ug/ml). Differentiation medium was supplemented with the following tested compounds: […] All media were replaced every other day. The oligodendrocyte lineage cells were characterized by the expression of a transcription factor olig2. The rabbit polyclonal AB anti olig2 (Millipore cat AB9610) was added to PFA fixed cells. […] ArrayScan VTI HCS reader system (Cellomis, Thermo-scientific) was used for scanning at least 20 fields for each tested well under 10× objective in both assays (differentiation and myelination). […] For myelination assay, the same morphological parameters were tested and in addition: areas of myelinated axons in pixels (MBP&NF overlap area) and Number of myelinated regions (MBP&NF overlap count) were also analyzed. […] The 4-parameter Hill-Slope curve fittings were generated by GraphPad Prism software using least squares fitting method and EC50 values were calculated. […] Time points used for analysis are 21, 28, 35 and 42 days of differentiation, for each time point 20 fields were analyzed. […]

Assay [2] deals with hPSC derived oligodendrocytes co-cultured with rodent dorsal root ganglia neurons (MBP+ cells). The experiment in a line: Co-culture myelination assay (human oligodendrocytes with DRG neurons), MBP staining. It counts as cell-based. To be noted: 14 days co-culture; Noggin 50 ng/ml; LDN-193189 125 nM. The procedure:
ArrayScan VTI HCS reader system (Cellomis, Thermo-scientific) was used for scanning at least 20 fields for each tested well under 10× objective in both assays (differentiation and myelination). Cellomics Neural profiling bio-application was used for processing and analyzing the images. For differentiation assay, the following parameters were tested: number and percentage of O4+ cells, number of processes, processes length and number of branching points. For myelination assay, the same morphological parameters were tested and in addition: areas of myelinated axons in pixels (MBP&NF overlap area) and Number of myelinated regions (MBP&NF overlap count) were also analyzed. Modifications in the Neuro-profiling bio-application were conducted for this specific purpose. T-test analysis was used to compare between treatments. The 4-parameter Hill-Slope curve fittings were generated by GraphPad Prism software using least squares fitting method and EC50 values were calculated. […]
For testing maturation and myelination capacity of the hPSC derived oligodendrocytes, a co-culture system between rodent dorsal root ganglia (DRGs) and hPSCs derived oligodendrocytes was used. The number of MBP+ cells (MBP, a marker of oligodendrocytes' myelin) and Myelin formation (measured by co-localization area between MBP and neurofilament positive neuronal axons) was quantified.

B1: Noggin: the inhibitor of BMP signaling noggin (R&D) (protein, UniProt Q13253 28-232, looked up)
Noggin: QHYLHIRPAPSDNLPLVDLIEHPDPIFDPKEKDLNETLLRSLLGGHYDPGFMATSPPEDRPGGGGGAAGGAEDLAELDQLLRQRPSGAMPSEIKGLEFSEGLAQGKKQRLSKKLRRKLQMWLWSQTFCPVLYAWNDLGSRFWPRYVKVGSCFSKRSCSVPEGMVCKPSKSVHLTVLRWRCQRRGGQRCGWIPIQYPIISECKCSC
In the case of B1, the “conversion of neural stem cells to Olig2 positive cells” value in assay [1] was “stimulate the conversion of neural stem cells to Olig2 positive cells”. Also, the Myelin fibers entry in assay [2] is recorded as “Myelin fibers are observed”.
